B1: C4-AdP (SpS1-C4 displayed on magnetic particle) (ssDNA)
DNA: GAACATTGGCGTCCGTGAGCAGCTCGTGGTTGTTTGCTTGTATACTTTTGTGGTTTATCTTGTTTCTGATCACTTCCTCAAACGCCCAA
modifications: 5' amino linkage to bead
B2: C1-AdP (SpS1-C1 displayed on magnetic particle) (ssDNA)
DNA: GAACATTGGCGTCCGTGAGTGAGACCATAGTCCAGCGAACTAAACCTACCCTAAAGGGCAAGGAAGACGGGCACTTCCTCAAACGCCCAA
modifications: 5' amino linkage to bead

Target: SARS-CoV-2 spike protein extracellular domain (ECD), biotinylated (SARS-CoV-2, UniProt P0DTC2)
Assay: bead-based flow cytometry
Details: protein: commercial; chain copies: 3

Row | Binder | binding result
1 | B1 | binds
2 | B2 | binds

Source: publication PMC10968392, “Fluorometric and Colorimetric Method for SARS-CoV-2 Detection Using Designed Aptamer Display Particles”
